Laboratory results from article PMC10786891, “Massively parallel profiling of RNA-targeting CRISPR-Cas13d”.

T1: EsCas13d, nuclease-dead (Eubacterium siraeum, UniProt B0MS50, R295A;H300A;R849A;H854A)
T1 sequence: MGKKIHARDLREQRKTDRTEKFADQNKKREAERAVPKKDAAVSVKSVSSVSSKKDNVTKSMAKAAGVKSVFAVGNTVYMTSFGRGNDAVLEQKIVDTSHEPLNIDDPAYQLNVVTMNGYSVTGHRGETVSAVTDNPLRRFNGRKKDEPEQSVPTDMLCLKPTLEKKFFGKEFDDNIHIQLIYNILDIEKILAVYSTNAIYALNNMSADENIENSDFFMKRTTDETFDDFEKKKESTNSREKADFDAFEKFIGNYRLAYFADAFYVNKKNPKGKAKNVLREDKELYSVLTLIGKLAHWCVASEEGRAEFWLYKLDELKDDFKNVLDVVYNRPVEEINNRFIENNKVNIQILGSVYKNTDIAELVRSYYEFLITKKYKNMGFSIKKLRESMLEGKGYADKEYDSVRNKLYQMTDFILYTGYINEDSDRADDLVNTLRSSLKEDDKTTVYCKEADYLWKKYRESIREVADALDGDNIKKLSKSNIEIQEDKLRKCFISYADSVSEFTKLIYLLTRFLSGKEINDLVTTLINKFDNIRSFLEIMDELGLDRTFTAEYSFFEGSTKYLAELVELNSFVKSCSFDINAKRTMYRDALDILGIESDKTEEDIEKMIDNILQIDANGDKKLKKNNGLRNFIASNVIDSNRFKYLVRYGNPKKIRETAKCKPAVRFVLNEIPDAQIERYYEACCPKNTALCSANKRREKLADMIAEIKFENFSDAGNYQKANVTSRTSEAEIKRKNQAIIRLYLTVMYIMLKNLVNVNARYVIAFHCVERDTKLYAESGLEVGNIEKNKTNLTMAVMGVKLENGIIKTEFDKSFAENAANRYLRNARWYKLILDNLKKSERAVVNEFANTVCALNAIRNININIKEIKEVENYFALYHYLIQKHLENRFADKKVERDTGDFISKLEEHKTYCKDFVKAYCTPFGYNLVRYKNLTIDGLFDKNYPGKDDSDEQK


target: T1, EsCas13d, nuclease-dead; assay: crRNA (strand 1, pre-loaded); Mg2+; 40 mM Tris-HCl pH 7.5, 150 mM NaCl, 6 mM MgCl2, 1 mM DTT, 0.1% Tween-20, 0.2 mg/ml BSA; 25 C; 10 min per concentration, then washed; settings: tags: His6-TwinStrep-SUMO cleaved; N-terminal SNAP kept (SNAP-Surface 488); label: 3' end held by stalled T7 RNA polymerase

Binder	Kd [nM]
target 1 insG 3' of 10,insU 3' of 5 (mixed) RNA 1: CACCCGUGCAAAAAUGCAGGGGUCUAAAACUGAGCGGAUAACCUCUCUAUGG RNA 2: GGGAAUGGAUCCACAUCUACGAAUUCGUACCAUAGAGAGGUUGAUCCGUCUCACCGAGAUCGGAAGAGCACACGU	43 ± 11
target 1 insU 3' of 21,insG 3' of 2 (mixed) RNA 1: CACCCGUGCAAAAAUGCAGGGGUCUAAAACUGAGCGGAUAACCUCUCUAUGG RNA 2: GGGAAUGGAUCCACAUCUACGAAUUCGUACCUAUAGAGAGGUUAUCCGCUCGACCGAGAUCGGAAGAGCACACGU	26 ± 5
target 1 insU 3' of 15 (mixed) RNA 1: CACCCGUGCAAAAAUGCAGGGGUCUAAAACUGAGCGGAUAACCUCUCUAUGG RNA 2: GGGAAUGGAUCCACAUCUACGAAUUCGUACCAUAGAGUAGGUUAUCCGCUCACCGAGAUCGGAAGAGCACACGU	8.7 ± 0.6
target 1 insU 3' of 12,insG 3' of 7 (mixed) RNA 1: CACCCGUGCAAAAAUGCAGGGGUCUAAAACUGAGCGGAUAACCUCUCUAUGG RNA 2: GGGAAUGGAUCCACAUCUACGAAUUCGUACCAUAGAGAGGUUUAUCGCGCUCACCGAGAUCGGAAGAGCACACGU	6.8 ± 0.4
target 1 C7A,C22U (mixed) RNA 1: CACCCGUGCAAAAAUGCAGGGGUCUAAAACUGAGCGGAUAACCUCUCUAUGG RNA 2: GGGAAUGGAUCCACAUCUACGAAUUCGUAUCAUAGAGAGGUUAUACGCUCACCGAGAUCGGAAGAGCACACGU	13.8 ± 1.1
target 1 C2G,U8C (mixed) RNA 1: CACCCGUGCAAAAAUGCAGGGGUCUAAAACUGAGCGGAUAACCUCUCUAUGG RNA 2: GGGAAUGGAUCCACAUCUACGAAUUCGUACCAUAGAGAGGUUACCCGCUGACCGAGAUCGGAAGAGCACACGU	7.9 ± 0.4
target 1 G13C (mixed) RNA 1: CACCCGUGCAAAAAUGCAGGGGUCUAAAACUGAGCGGAUAACCUCUCUAUGG RNA 2: GGGAAUGGAUCCACAUCUACGAAUUCGUACCAUAGAGACGUUAUCCGCUCACCGAGAUCGGAAGAGCACACGU	62 ± 16
target 1 A9G,C22G (mixed) RNA 1: CACCCGUGCAAAAAUGCAGGGGUCUAAAACUGAGCGGAUAACCUCUCUAUGG RNA 2: GGGAAUGGAUCCACAUCUACGAAUUCGUAGCAUAGAGAGGUUGUCCGCUCACCGAGAUCGGAAGAGCACACGU	58 ± 18
target 1 G12C,G13A (mixed) RNA 1: CACCCGUGCAAAAAUGCAGGGGUCUAAAACUGAGCGGAUAACCUCUCUAUGG RNA 2: GGGAAUGGAUCCACAUCUACGAAUUCGUACCAUAGAGAACUUAUCCGCUCACCGAGAUCGGAAGAGCACACGU	9.5 ± 0.5
target 1 insG 3' of 3,insC 3' of 3 (mixed) RNA 1: CACCCGUGCAAAAAUGCAGGGGUCUAAAACUGAGCGGAUAACCUCUCUAUGG RNA 2: GGGAAUGGAUCCACAUCUACGAAUUCGUACCAUAGAGAGGUUAUCCGCUGCCACCGAGAUCGGAAGAGCACACGU	11.4 ± 0.4
target 1 U10A,G17A (mixed) RNA 1: CACCCGUGCAAAAAUGCAGGGGUCUAAAACUGAGCGGAUAACCUCUCUAUGG RNA 2: GGGAAUGGAUCCACAUCUACGAAUUCGUACCAUAAAGAGGUAAUCCGCUCACCGAGAUCGGAAGAGCACACGU	55 ± 5
target 1 insU 3' of 18,insG 3' of 3 (mixed) RNA 1: CACCCGUGCAAAAAUGCAGGGGUCUAAAACUGAGCGGAUAACCUCUCUAUGG RNA 2: GGGAAUGGAUCCACAUCUACGAAUUCGUACCAUAUGAGAGGUUAUCCGCUGCACCGAGAUCGGAAGAGCACACGU	17.7 ± 0.6
target 1 insG 3' of 20,insG 3' of 20 (mixed) RNA 1: CACCCGUGCAAAAAUGCAGGGGUCUAAAACUGAGCGGAUAACCUCUCUAUGG RNA 2: GGGAAUGGAUCCACAUCUACGAAUUCGUACCAGGUAGAGAGGUUAUCCGCUCACCGAGAUCGGAAGAGCACACGU	60 ± 20
target 1 insC 3' of 9,insC 3' of 8 (mixed) RNA 1: CACCCGUGCAAAAAUGCAGGGGUCUAAAACUGAGCGGAUAACCUCUCUAUGG RNA 2: GGGAAUGGAUCCACAUCUACGAAUUCGUACCAUAGAGAGGUUACUCCCGCUCACCGAGAUCGGAAGAGCACACGU	19.9 ± 1.4
target 1 insU 3' of 21,insG 3' of 19 (mixed) RNA 1: CACCCGUGCAAAAAUGCAGGGGUCUAAAACUGAGCGGAUAACCUCUCUAUGG RNA 2: GGGAAUGGAUCCACAUCUACGAAUUCGUACCUAUGAGAGAGGUUAUCCGCUCACCGAGAUCGGAAGAGCACACGU	73 ± 9
target 1 insG 3' of 19,insA 3' of 13 (mixed) RNA 1: CACCCGUGCAAAAAUGCAGGGGUCUAAAACUGAGCGGAUAACCUCUCUAUGG RNA 2: GGGAAUGGAUCCACAUCUACGAAUUCGUACCAUGAGAGAGAGUUAUCCGCUCACCGAGAUCGGAAGAGCACACGU	47 ± 10
target 1 complement block 1-5 (mixed) RNA 1: CACCCGUGCAAAAAUGCAGGGGUCUAAAACUGAGCGGAUAACCUCUCUAUGG RNA 2: GGGAAUGGAUCCACAUCUACGAAUUCGUACCAUAGAGAGGUUAUCCCGAGUCCGAGAUCGGAAGAGCACACGU	14.3 ± 0.6
target 1 G12A,U19C (mixed) RNA 1: CACCCGUGCAAAAAUGCAGGGGUCUAAAACUGAGCGGAUAACCUCUCUAUGG RNA 2: GGGAAUGGAUCCACAUCUACGAAUUCGUACCACAGAGAGAUUAUCCGCUCACCGAGAUCGGAAGAGCACACGU	22 ± 3
target 1 A9G,G12U (mixed) RNA 1: CACCCGUGCAAAAAUGCAGGGGUCUAAAACUGAGCGGAUAACCUCUCUAUGG RNA 2: GGGAAUGGAUCCACAUCUACGAAUUCGUACCAUAGAGAGUUUGUCCGCUCACCGAGAUCGGAAGAGCACACGU	12.5 ± 0.6
target 1 insU 3' of 17,insA 3' of 4 (mixed) RNA 1: CACCCGUGCAAAAAUGCAGGGGUCUAAAACUGAGCGGAUAACCUCUCUAUGG RNA 2: GGGAAUGGAUCCACAUCUACGAAUUCGUACCAUAGUAGAGGUUAUCCGCAUCACCGAGAUCGGAAGAGCACACGU	15.3 ± 1.4
target 1 insC 3' of 9,insG 3' of 4 (mixed) RNA 1: CACCCGUGCAAAAAUGCAGGGGUCUAAAACUGAGCGGAUAACCUCUCUAUGG RNA 2: GGGAAUGGAUCCACAUCUACGAAUUCGUACCAUAGAGAGGUUACUCCGCGUCACCGAGAUCGGAAGAGCACACGU	7.02 ± 0.26
target 1 C6G,G13U (mixed) RNA 1: CACCCGUGCAAAAAUGCAGGGGUCUAAAACUGAGCGGAUAACCUCUCUAUGG RNA 2: GGGAAUGGAUCCACAUCUACGAAUUCGUACCAUAGAGAUGUUAUCGGCUCACCGAGAUCGGAAGAGCACACGU	37 ± 5
target 3 complement block 3-7 (mixed) RNA 1: CACCCGUGCAAAAUUGCAGGGGUCUAAAACGACCUGAAUAUUUCAGAUCAAA RNA 2: GGGAAUGGAUCCACAUCUACGAAUUCGUUUUUGAUCUGAAAUAUAGUCCUCUGCAGAUCGGAAGAGCACACGU	74 ± 11
target 3 G3C,U21G (mixed) RNA 1: CACCCGUGCAAAAUUGCAGGGGUCUAAAACGACCUGAAUAUUUCAGAUCAAA RNA 2: GGGAAUGGAUCCACAUCUACGAAUUCGUUUGUGAUCUGAAAUAUUCAGCUCUGCAGAUCGGAAGAGCACACGU	70.5 ± 24
target 3 del14,del17 (mixed) RNA 1: CACCCGUGCAAAAUUGCAGGGGUCUAAAACGACCUGAAUAUUUCAGAUCAAA RNA 2: GGGAAUGGAUCCACAUCUACGAAUUCGUUUUUGACUAAAUAUUCAGGUCUGCAGAUCGGAAGAGCACACGU	41 ± 7
target 3 insA 3' of 8,insA 3' of 7 (mixed) RNA 1: CACCCGUGCAAAAUUGCAGGGGUCUAAAACGACCUGAAUAUUUCAGAUCAAA RNA 2: GGGAAUGGAUCCACAUCUACGAAUUCGUUUUUGAUCUGAAAUAUAUACAGGUCUGCAGAUCGGAAGAGCACACGU	44.5 ± 5.5
target 3 insU 3' of 16,insA 3' of 4 (mixed) RNA 1: CACCCGUGCAAAAUUGCAGGGGUCUAAAACGACCUGAAUAUUUCAGAUCAAA RNA 2: GGGAAUGGAUCCACAUCUACGAAUUCGUUUUUGAUCUUGAAAUAUUCAGAGUCUGCAGAUCGGAAGAGCACACGU	90 ± 44.5
target 3 C6U,U7C (mixed) RNA 1: CACCCGUGCAAAAUUGCAGGGGUCUAAAACGACCUGAAUAUUUCAGAUCAAA RNA 2: GGGAAUGGAUCCACAUCUACGAAUUCGUUUUUGAUCUGAAAUAUCUAGGUCUGCAGAUCGGAAGAGCACACGU	65.5 ± 15.5
